This note sets out measurements from paper PMC12619835, “KLF5 enables dichotomous lineage programs in pancreatic cancer via the AAA+ ATPase coactivators RUVBL1 and RUVBL2” (Nature Communications, 2025).

This assay has as its target T1, RUVBL1/2 hetero-hexamer (purified, recombinant) (UniProt Q9Y265 1-456; Q9Y230 1-463).
T1 construct: RUVBL1; RUVBL2, untagged; Printed as a hetero-hexamer; also called RUVBL1/2 complex; source: E. coli BL21, co-expressed, purified (Ni-NTA, TEV cleavage, SEC on Superose 6); not shown: His6, N-terminal, cleaved
Briefly: pull-down; MBP-KLF5 (10 μg) or MBP (5 μg) on amylose resin; 10 μg RUVBL1, 10 μg RUVBL2 or 20 μg RUVBL1/2 hetero-hexamer added for 2 h in 50 mM Na3PO4 pH 7.5, 0.1 mM EDTA, 200 mM NaCl, 1 mM DTT, 5% glycerol; washes with 250 mM NaCl; maltose elution; Western blot; 4 °C. The settings on record: both partners purified.

T1 sequence (Q9Y265 whole entry, chain 1 of 2): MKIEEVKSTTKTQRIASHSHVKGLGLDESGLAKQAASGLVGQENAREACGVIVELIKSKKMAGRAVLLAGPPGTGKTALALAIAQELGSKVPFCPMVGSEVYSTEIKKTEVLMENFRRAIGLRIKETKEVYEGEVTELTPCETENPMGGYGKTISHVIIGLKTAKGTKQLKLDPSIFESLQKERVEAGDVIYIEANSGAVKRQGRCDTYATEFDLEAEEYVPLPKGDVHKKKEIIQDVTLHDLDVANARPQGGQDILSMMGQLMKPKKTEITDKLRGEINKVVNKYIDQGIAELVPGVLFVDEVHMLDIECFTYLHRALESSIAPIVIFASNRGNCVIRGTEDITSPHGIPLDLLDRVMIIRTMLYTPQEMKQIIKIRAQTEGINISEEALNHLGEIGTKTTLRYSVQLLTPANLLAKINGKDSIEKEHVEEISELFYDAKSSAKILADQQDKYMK
T1 sequence (Q9Y230 whole entry, chain 2 of 2): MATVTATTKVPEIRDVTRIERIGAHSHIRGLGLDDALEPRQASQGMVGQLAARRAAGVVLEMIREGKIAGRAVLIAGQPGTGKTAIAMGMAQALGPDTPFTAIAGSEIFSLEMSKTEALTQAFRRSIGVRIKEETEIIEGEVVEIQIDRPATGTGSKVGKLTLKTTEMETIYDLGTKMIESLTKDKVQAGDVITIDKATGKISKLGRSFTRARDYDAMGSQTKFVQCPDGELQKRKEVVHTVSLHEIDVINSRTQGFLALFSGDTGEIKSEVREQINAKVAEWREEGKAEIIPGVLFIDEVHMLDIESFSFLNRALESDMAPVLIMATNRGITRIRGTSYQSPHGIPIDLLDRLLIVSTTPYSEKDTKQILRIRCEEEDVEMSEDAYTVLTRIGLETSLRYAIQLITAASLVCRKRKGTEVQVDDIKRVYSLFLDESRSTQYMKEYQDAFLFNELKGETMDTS

B1: recombinant MBP-tagged KLF5 (natural protein)
chain: not shown
notes: KLF5; For the pull-down with pure proteins the MBP-KLF5 was not previously subject to the amylose purification; also called MBP-KLF5; 6xHis-TEV-MBP-KLF5; source: E. coli BL21-CodonPlus (DE3)-RIPL, purified (Ni-NTA, TEV cleavage, SEC; also amylose resin for the mass spectrometry experiments); not shown: His6, N-terminal, cleaved; MBP, N-terminal, kept
B1: the binding result is reported as “binds”.
